Reference: patent US20130011406A1 (KOLLTAN PHARMACEUTICALS, published 2013)

Tests used:
[1] = molecular target: full-length, wild-type human KIT (human, UniProt P10721 26-976); assay: cell-based or functional assay
[2] = molecular target: T1, recombinant KIT D4/D5 polypeptide (D4/D5 region of human KIT, V308 to H515, with 5xHis tag) (human, UniProt P10721 26-519); assay: solid phase ELISA, recombinant D4/D5 region coated on plate, full-length human IgG1
T1 construct: also called recombinant antigen; recombinant IG domain four and five of the extracellular region of KIT
T1 sequence (P10721 other isoform, or with tags, fused parts or gaps limits assumed): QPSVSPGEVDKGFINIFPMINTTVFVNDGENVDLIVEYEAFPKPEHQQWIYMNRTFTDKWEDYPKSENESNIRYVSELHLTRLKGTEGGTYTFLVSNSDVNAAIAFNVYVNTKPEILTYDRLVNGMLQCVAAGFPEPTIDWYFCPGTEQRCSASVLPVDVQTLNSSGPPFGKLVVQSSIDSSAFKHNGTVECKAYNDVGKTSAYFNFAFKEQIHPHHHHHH
Experimental: Serial antibody dilutions were prepared as follows. A starting antibody concentration of 300 nM (or lower depending on sample) was diluted down 1:3 in dilution buffer. Specifically, 200 μl of the starting concentration (top row of dilution plate) was prepared, and 75 μl was diluted into 150 μl in the row below. The dilution was mixed, and the dilution step was repeated down the plate. From the dilution plate, 100 μl was transferred to the assay plate.
The binding assays were carried out as follows. The plate coated with antigen (i.e., recombinant D4/D5 region of KIT) were removed from the −80° C. freezer and were allowed to warm to room temperature. The borate buffer was removed by flicking the plate into the sink and blotting it dry. 200 μL of the blocking buffer (1% BSA/TBS) was added and incubated at room temperature for one hour. The blocking buffer was then removed by flicking the plate into the sink, and blotting dry. Then, the serially diluted antibodies and controls were added to the plate in a volume of 100 μL, and the plate was sealed and incubated at room temperature for one hour.

[3] = molecular target: T1, recombinant KIT D4/D5 polypeptide …; assay: solid phase ELISA, D4/D5 antigen coated on plate, Fab; concentration at 50% binding
Experimental: (§1) Coating plates with antigen: Recombinant antigen containing the D4/D5 region of the KIT extracellular Ig-like region (see FIG. 2A) were absorbed to 96-well microtiter plates. 10 μg of recombinant antigen (i.e., D4/D5 region of KIT) were diluted into 10 mL of borate buffer, and 100 μL of the antigen solution were added to each well of a 96 well plate. The 96 well plate was covered with a plate sealer, was incubated at 4° C. overnight, and then stored at −80° C. until the day of the assay.
ELISA: The plate with the absorbed antigen was removed from the −80° C. freezer and was allowed to thaw at room temperature. The borate buffer was removed by flicking the plate into the sink and blotting the plate dry. 200 μL of the blocking buffer were added to each well and allowed to incubate at room temperature for one hour. The blocking buffer was removed, again by flicking the plate into the sink. […] Subsequently, 100 μL of 2NH₂SO₄ were added to each well and immediately read on the plate reader. […]

[4] = molecular target: T2, recombinant D4 domain polypeptide of human KIT (V308 to K412, with His tag) (human, UniProt P10721 26-412); assay: solid phase ELISA, D4 polypeptide coated on plate
T2 construct: also called D4 domain of human KIT
T2 sequence (P10721 other isoform, or with tags, fused parts or gaps limits assumed): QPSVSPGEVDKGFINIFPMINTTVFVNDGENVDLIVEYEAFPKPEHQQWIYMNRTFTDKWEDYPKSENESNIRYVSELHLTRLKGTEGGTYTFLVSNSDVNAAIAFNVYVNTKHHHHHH

[5] = molecular target: T3, recombinant D5 domain polypeptide of human KIT (N410 to H515, with His tag) (human, UniProt P10721 26-519); assay: solid phase ELISA, D5 polypeptide coated on plate
T3 construct: also called D5 domain of human KIT
T3 sequence (P10721 other isoform, or with tags, fused parts or gaps limits assumed): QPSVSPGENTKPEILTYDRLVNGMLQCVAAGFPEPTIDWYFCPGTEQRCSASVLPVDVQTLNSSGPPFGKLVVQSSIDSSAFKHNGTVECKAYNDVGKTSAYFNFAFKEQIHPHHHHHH

[6] = molecular target: T2, recombinant D4 domain polypeptide of …; assay: solid phase ELISA, polypeptide coated on plate
[7] = molecular target: T3, recombinant D5 domain polypeptide of …; assay: solid phase ELISA, polypeptide coated on plate
[8] = molecular target: T1, recombinant KIT D4/D5 polypeptide …; assay: solid phase ELISA, D4/D5 polypeptide coated on plate
Experimental: as §1
ELISA: The plate with the absorbed antigen was removed from the −80° C. freezer and was allowed to thaw at room temperature. The borate buffer was removed by flicking the plate into the sink and blotting the plate dry. 200 μL of the blocking buffer were added to each well and allowed to incubate at room temperature for one hour. The blocking buffer was removed, again by flicking the plate into the sink. Then, the diluted solution of test antibodies and controls (were added to the plate in a volume of 50 μL and incubated at room temperature for one hour. The antibody solutions were removed, and the plate was washed four times with 300 μL of wash buffer with five minute incubations. After the last wash, the plate was blotted dry. The diluted secondary antibody solution was added to each well in a volume of 100 μL and allowed to incubate for one hour at room temperature. The diluted secondary antibody solution was removed, and the plate was washed four times with 300 μL of wash buffer with five minute incubations. The plate was then blotted dry, and freshly mixed substrate solution was added to each well in a volume of 100 μL and was allowed to incubate at room temperature for 30 minutes. Subsequently, 100 μL of 2NH₂SO₄ were added to each well and immediately read on the plate reader. An irrelevant antibody served as the negative control, and an anti-KIT antibody against the D4 and/or D5 domain of the extracellular region of KIT served as the positive control. OD values for each sample were obtained at a wavelength of 450 nm.

full-length, wild-type human KIT, sequence (P10721 other isoform, or with tags, fused parts or gaps limits assumed): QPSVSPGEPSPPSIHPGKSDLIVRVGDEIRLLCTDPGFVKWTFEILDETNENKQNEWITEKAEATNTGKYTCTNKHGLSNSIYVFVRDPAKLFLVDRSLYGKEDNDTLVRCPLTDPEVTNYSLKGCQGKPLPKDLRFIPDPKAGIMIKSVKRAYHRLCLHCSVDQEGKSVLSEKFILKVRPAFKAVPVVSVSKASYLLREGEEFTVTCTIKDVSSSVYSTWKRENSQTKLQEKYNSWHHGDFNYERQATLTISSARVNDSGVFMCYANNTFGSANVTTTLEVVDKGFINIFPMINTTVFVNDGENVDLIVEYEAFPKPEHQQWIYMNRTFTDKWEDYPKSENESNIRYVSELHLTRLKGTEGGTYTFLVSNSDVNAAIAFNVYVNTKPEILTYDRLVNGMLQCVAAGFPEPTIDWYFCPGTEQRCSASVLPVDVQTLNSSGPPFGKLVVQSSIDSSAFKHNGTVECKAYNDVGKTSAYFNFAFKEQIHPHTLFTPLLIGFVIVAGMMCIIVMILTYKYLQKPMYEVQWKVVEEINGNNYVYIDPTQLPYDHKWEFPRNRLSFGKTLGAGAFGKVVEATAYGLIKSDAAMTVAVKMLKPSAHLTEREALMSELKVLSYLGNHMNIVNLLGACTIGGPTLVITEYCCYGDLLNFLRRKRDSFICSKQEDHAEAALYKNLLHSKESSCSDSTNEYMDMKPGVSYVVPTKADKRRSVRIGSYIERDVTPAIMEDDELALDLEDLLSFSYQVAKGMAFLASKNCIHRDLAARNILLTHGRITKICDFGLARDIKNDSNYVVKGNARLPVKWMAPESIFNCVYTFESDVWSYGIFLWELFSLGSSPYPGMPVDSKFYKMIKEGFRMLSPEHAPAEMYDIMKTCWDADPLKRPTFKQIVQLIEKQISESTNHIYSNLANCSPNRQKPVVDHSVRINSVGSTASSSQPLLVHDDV

B1: full-length human IgG1 antibody Ab1 (antibody, V domains shown)
VH: EVQLLESGGGLVQPGGSLRLSCAASGFTFSNYLMSWVRQAPGKGLEWVSSIVPSGGFTHYADSVKGRFTISRDNSKNTLYLQMNSLRAEDTAVYYCARLQTGSWRVHAFDIWGQGTMVTVSS
VL: DIQMTQSPTSLSAFVGDRVTITCQASQDIGNYLNWYQQKSGEPPKLLVYDASFLKKGVPSRFSGSGSGTQYFLTIYSLQPEDFATYFCQHSDNLSVTFGGGTKVEVKR
notes: also called human monoclonal Ab1
In the case of B1, the “50% inhibition concentration (IC50) of tyrosine phosphorylation of the cytoplasmic domain of KIT (cell-based phospho-KIT assay)” value [1] is reported as 2.2 nM and the EC50 [2] is reported as 0.171 nM.

B2: full-length human IgG1 antibody Ab21 (antibody, V domains shown)
VH: EVQLLESGGGLVQPGGSLRLSCAASGFTFSNYLMSWVRQAPGKGLEWVSSIVPSGGFTHYADSVKGRFTISRDNSKNTLYLQMNSLRAEDTAVYYCARLQTGSWRVHAFDIWGQGTMVTVSS
VL: DIQMTQSPTSLSAFVGDRVTITCQASQDIGNYLNWYQQKSGEPPKLLVYDASFLKKGVPSRFSGSGSGTQYFLTIYSLQPEDFATYFCQHSDSLSVTFGGGTKVEVKR
notes: Derived from Ab1 by changing the N in VL CDR3 to S to remove a glycosylation site; also called human monoclonal Ab21
For B2, the “50% inhibition concentration (IC50) of tyrosine phosphorylation of the cytoplasmic domain of KIT (cell-based phospho-KIT assay)” value [1] was 1.3 nM and the EC50 [2] was 0.156 nM.

B3: Fab antibody Ab12 (Fab, V domains shown)
VH: EVQLLESGGGLVQPGGSLRLSCAASGFTFSFYKMHWVRQAPGKGLEWVSGIWPSGGYTEYADSVKGRFTISRDNSKNTLYLQMNSLRAEDTAVYYCARSSGYHIDYWGQGTLVTVSS
VL: DIQMTQSPGTLSLSPGERATLYCRASQSVKSNYLAWYQQKPGQAPRLLIYGASTRATDIPDRFSGSGSGTDFTLTISRLEPEDFAVYYCQQYGSSLSYTFGQGTKLEIK
notes: Fab from a phage library
B3 was tested, and the EC50 [3] was at most 300 nM.

B4: Fab antibody Ab2 (Fab, V domains shown)
VH: EVQLLESGGGLVQPGGSLRLSCAASGFTFSNYKMGWVRQAPGKGLEWVSWIYPSGGGTFQADSVKGRFTISRDNSKNTLYLQMNSLRAEDTAVYYCARVRVGSTGNFDYWGQGTLVTVSS
VL: DIQMTQSPATLSLSPGERATLYCRASQSVSNYVAWYQQRPGQAPRLLMYDTSKRATGIPARFSGSGSGTDFTLTISSLEPEDFAVYYCQQRSYWFAFGGGTKVEIK
notes: Fab from a phage library
B4: binds [4].

B5: Fab antibody Ab3 (Fab, V domains shown)
VH: EVQLLESGGGLVQPGGSLRLSCAASGFTFSPYNMMWVRQAPGKGLEWVSRISPSGGDTHYADSVKGRFTISRDNSKNTLYLQMNSLRAEDTAVYYCARGSRSSWSTPYYWGQGILVTVSS
VL: QSALTQPPSASGTPGQRVTISCSGSSSNIGNNYVYWYQQLPGTAPKLLIYRSNQRPSGVPDRFSGSKSGASASLAISGLRSEDEADYYCAAWDDSLIGPVFGGGTKLTVL
notes: Fab from a phage library
B5: binds [4].

B6: Fab antibody Ab13 (Fab, V domains shown)
VH: EVQLLESGGGLVQPGGSLRLSCAASGFTFSNYTMHWVRQAPGKGLEWVSVIYPSGGMTKYADSVKGRFTISRDNSKNTLYLQMNSLRAEDTAVYYCARGSTTFDYWGQGTLVTVSS
VL: DIQMTQSPGTLSLSPGERATLSCRASQSVRSNYLAWYQQKPGQAPRLLIYGASSRATGIPDRFSGSGSGTDFTLTISRLEPEDFAVYYCQQRSNWPITFGQGTRLEIK
notes: Fab from a phage library
B6: binds [4].

B7: Fab antibody Ab17 (Fab, V domains shown)
VH: EVQLLESGGGLVQPGGSLRLSCAASGFTFSNYTMIWVRQAPGKGLEWVSRIWPSGGGTDYADSVKGRFTISRDNSKNTLYLQMNSLRAEDTATYYCARRVGASRYFDLWGRGTLVTVSS
VL: DIQMTQSPSSLSASVGDRVTVTCRASQNIDNYLNWYQQRPGKAPELLIYAASSLQSGVPSRFSGSGSGTDFTLTISSLQPEDFATYYCQQSYSNSRTFGQGTKVEIK
notes: Fab from a phage library
B7: binds [4].

B8: Fab antibody Ab20 (Fab, V domains shown)
VH: EVQLLESGGGLVQPGGSLRLSCAASGFTFSRYGMAWVRQAPGKGLEWVSSIRPSGGYTAYADSVKGRFTISRDNSKNTLYLQMNSLRAEDTAVYYCARLPARFDYYYGLDVWGQGTTVTVSS
VL: DIQMTQSPATLSLSPGERATLSCRASQSVNIYLAWYQQRPGQAPRLLIYDASNRAIGVPARFSGTGSGTDFTLTISSLEPEDSAVYYCQQRDSWPPRLSFGGGTKVEIK
notes: Fab from a phage library
B8: binds [4].

B9: Fab antibody Ab19 (Fab, V domains shown)
VH: EVQLLESGGGLVQPGGSLRLSCAASGFTFSNYQMQWVRQAPGKGLEWVSSIRPSGGSTQYADSVKGRFTISRDNSKNTLYLQMNSLRAEDTAVYYCARGSSHAFDIWGQGTMVTVSS
VL: DIQMTQSPGTLSLSPGERATLSCRASQSFRSSYLAWYQQKPGQAPRLLIYDTSTRATGIPDRFSGSGSGTDFTLTISRLEPEDFAVYYCQQYGSSPPMYTFGQGTKLEIK
notes: Fab from a phage library
B9: binds [5].

B10: Fab antibody Ab4 (Fab, V domains shown)
VH: EVQLLESGGGLVQPGGSLRLSCAASGFTFSWYWMYWVRQAPGKGLEWVSGIYPSGGFTSYADSVKGRFTISRDNSKNTLYLQMNSLRAEDTAVYYCARSYYYGSGSYYNSASFDYWGQGTLVTVSS
VL: DIQMTQSPSSLSASVGDRVAITCRASQSIDTYLNWYQQKPGKAPKLLIYAASKLEDGVPSRFSGSGTGTDFTLTIRSLQPEDFASYFCQQSYSSPGITFGPGTKVEIK
notes: Fab from a phage library
B10: no binding [6]; no binding [7]; binds [8].

B11: Fab antibody Ab14 (Fab, V domains shown)
VH: EVQLLESGGGLVQPGGSLRLSCAASGFTFSRYAMWWVRQAPGKGLEWVSYIYSSGGQTGYADSVKGRFTISRDNSKNTLYLQMNSLRAEDTAVYYCARGGVTFDLWGRGTLVTVSS
VL: DIQMTQSPATLSVSPGERATLSCRASQGVSTYLAWYQQKPGQAPRLLIYGASTRATGIPARFSGSGSGTDFTLTINSLELEDFAVYYCQQRRSWPPTFGQGTKVEIK
notes: Fab from a phage library
B11: no binding [6]; no binding [7]; binds [8].

B12: Fab antibody Ab15 (Fab, V domains shown)
VH: EVQLLESGGGLVQPGGSLRLSCAASGFTFSNYTMMWVRQAPGKGLEWVSGIRPSGGGTMYADSVKGRFTISRDNSKNTLYLQMNSLRAEDTAVYYCASVVNHKFDNWGQGTLVTVSS
VL: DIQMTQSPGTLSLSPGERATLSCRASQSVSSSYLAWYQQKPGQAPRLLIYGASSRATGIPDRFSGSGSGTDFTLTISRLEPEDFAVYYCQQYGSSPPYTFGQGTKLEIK
notes: Fab from a phage library
B12: no binding [6]; no binding [7]; binds [8].

B13: Fab antibody Ab16 (Fab, V domains shown)
VH: EVQLLESGGGLVQPGGSLRLSCAASGFTFSQYVMFWVRQAPGKGLEWVSSIYPSGGHTLYADSVKGRFTISRDNSKNTLYLQMNSLRAEDTAVYYCAKHARGYNRGYFDSWGRGTLVTVSS
VL: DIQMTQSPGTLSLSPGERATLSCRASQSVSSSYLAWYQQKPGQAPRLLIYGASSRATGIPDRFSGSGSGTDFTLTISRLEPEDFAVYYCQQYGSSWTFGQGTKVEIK
notes: Fab from a phage library
B13: no binding [6]; no binding [7]; binds [8].

B14: Fab antibody Ab18 (Fab, V domains shown)
VH: EVQLLESGGGLVQPGGSLRLSCAASGFTFSWYAMWWVRQAPGKGLEWVSYISSSGGATRYADSVKGRFTISRDNSKNTLYLQMNSLRAEDTAVYYCATVLQYGAFDIWGQGTMVTVSS
VL: QSALTQPPSTSGTPGQRVTISCSGSSSNIGSNYVYWYQQLPGTAPKVLIYRNNKRPSGVPDRFSGSKSGTSASLAISGLRSEDEADYYCAAWDDSLNGVIFGGGTRLTVL
notes: Fab from a phage library
B14: no binding [6]; no binding [7]; binds [8].

B15: Fab antibody Ab11 (Fab, V domains shown)
VH: EVQLLESGGGLVQPGGSLRLSCAASGFTFSNYRMMWVRQAPGKGLEWVSGIYPSGGGTFYADSVKGRFTISRDNSKNTLYLQMNSLRAEDTAVYYCARKKMATFAAFDIWGQGTMVTVSS
VL: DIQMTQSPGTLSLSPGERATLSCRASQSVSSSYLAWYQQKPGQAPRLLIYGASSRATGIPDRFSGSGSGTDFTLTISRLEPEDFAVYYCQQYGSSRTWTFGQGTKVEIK
notes: Fab from a phage library
With B15 the EC50 [3] was at most 300 nM.
